# Measured values reported in the nanobody polyreactivity screen of Harvey et al. (2022).
# Assay: yeast display, Sf9 membrane polyspecificity reagent, FACS + sequencing; frameworks hold sequencing errors
# Outline: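 A nanobody's polyreactivity label depends on the gate it was sorted from. Yeast display cells were stained with 10% biotinylated, detergent-solubilized Sf9 membrane reagent for 1 hour at 4 °C, enriched on streptavidin microbeads and sorted by FACS. The low and high (top ~1%) gates were set on anti-HA fluorescence for expression and streptavidin fluorescence for reagent binding.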
row,Sequence,polyreactivity (PSR sort gate)
1,QVQLVESGGGLVQAGGSLRLSCAASGFIIIGYVMGWYRQAPGKERELVAAITSSGGSTYYADSVKGRFTISRDHAKNTVYLQMNSLKPEDTAVYYCAAEYYLLWSGMEYWGQGTQVTVSS,low polyreactivity
2,QVQLVESGGGLVQAGGSLRLSCAAYGSTFKRNAMGCYRQAPGKEREFVAAITWSGGSTYYADSVKGRFTISRDNAKNTVYLQMNSLKPEDTAVYYCNADRFSSRHSYDYWGQGTQVTVSS,low polyreactivity
3,QVQLVESGGGLVQAGGSLRLSCAASGIIFGTNAMGWSRQAPGKERELVAAITWSGGTYYADSVKGRFTISRDNAKNTVYLQMNSLKPEDTAVYYCAADGSGYYDWYYYWGQGTQVTVSS,low polyreactivity
4,QVQLVESGGGLVQAGGSLRLSCAASGLTFYRYAMGWYRQAPGKERELVAAITSGTRTYYADSVKGRFTISRDNAKNTVYLQMNSLKPEDTAVYYCAFRQGWYHFRYDYWGQGTQVTVSS,high polyreactivity
5,QVQLVESGGGLVQAGGSLRLSCAASGLIFPYNAMGWYRQAPGKERELVAAIDTRGSSTYYADSVKGRFTISRDNAKNTVYLQMNSLKPEDTAVYYCAADYRVQLRKEYDYWGQGTQVTVSS,high polyreactivity
6,QVQLVETGGGLVQAGGSFRLSCAASGGIFRTYAKGWYRQAPGKERELVAAISRSGGSTYYADSVKGRFTISRDNAKNTVYLQMNSLKPEDTAVYYCAASRPYYPLYGYWGQGTQVTVSS,high polyreactivity
7,QVQLVESGGGLVQAGGSLRLSCAASGLTFDDYAMGWYRPAPWKEREFVATITLRGGSTYYADSVKGRFTISRDNAKNTVYLQLNSLKPEDTAVYYCNTDLGYSLEWDYDYWGQGTQVTVSS,low polyreactivity
8,QVQLQESGGGLVQAGGSLRLSCAASGSISAVGAMGWYRQAPGKEREFAASVNWGTNTNYADSVKGRFTISRDNAKNTLYLQMNSLKPEDTAVYYCAVLPDWETRHEYWGHGTQVTVSS,low polyreactivity
9,QVQLVESGGGLVQAGGSLRLSCAASGRTFGSYAMAWYRQAPGKERELVAAITWSGTGTYYADSVKGRFTISRDNAKNTVYLQMKSLKPEVTAVYYCAARYASGRRGEYWGQGTQVTVSS,high polyreactivity
10,QVQLVESGGGLVQAGGSLRLSCAASGITFGPYAMGWYRQAPGKERELVAAITWGGGSTYYADSVKGRFTISRDNAKNTVYLQMNSLKPEDTAVYYCNAEGSTTSRYLPYDYWGQGTQVTVSS,low polyreactivity
11,QVQLVESGGGLVQAGGSLRLSCAASGRIFRVNAMGWYRQAPGKERELVAAISGRGGSTYYADSVKGRFTISRDNANNTVYLQMNSLKPEDTAVYYCAKKSFSYGYNSYDYWGQGTQVTVSS,high polyreactivity
12,QVQLVESGGGLVQAGGSLRLTCAASGSTFRGNTMGWSRQAPGKERELVAAISWDGGTTYYADSVKGRFTISRDNAKNTVYLQMNCLKPEDTAVYYCAADWTGQEYEYWGQGTQVTVSS,low polyreactivity
13,QVQLVESGGGLVQARGSLRLSCAASGRTFYYYAMGWSRQAPGKERELVATISSGGSTSYADSVKGRFTISRDNAKNTVNLQMNSLKPEDTAVYYWNGRGRYLGTYHLGRLYNFWGQGTQVTVSS,high polyreactivity
14,QDQLVESGGGLVQAGGSLRLSCAASGSIFFARYSMGWYTQAPGKERELVAAITRATSTTYADSVKGRFTISRDNAKNTVYLQMKSLKPEDTAVYYCNADPAYQFDYWGQGTQVTVSS,high polyreactivity
15,QVQLVESGGGLVQAGGSLRLSSAASGFIFDFYTMGWYRQAPGKERELVAAITWSGDSTYYADSVKGRFTISRDNAKNTVYLQMNSLKPEDTAVYYCASDLSYNPGYDYWGQGTQVTVSS,low polyreactivity
16,QVQLVESGGGLVQAGGSLRLSCAASGSIFGSNAMGWYRQAPGKERELVAAITNTGRTNYADSVKGRFTISRDNAKNTVYLQMNSLKPEDTAVYYCNTDCYEFTHFVGGWYQIIDYDYWGQGSQVTVSS,low polyreactivity

row,Sequence,polyreactivity (PSR sort gate)
1,QVQLVESGGGLVQAGGSLRLSCAASGLTLYKNGMGWYRQAPGKERELVARITSGGRTYYADSVKGRFTISRDNAKNTVYLQMNSLKPEDTAVYYCNAVKSYASLCAGFYYWGQGTQVTVSS,high polyreactivity
2,QVQLVESGGGLVQAGGSLRLSCAPSGGIYLYYVMGWYRQAPGKERELVADISGDDSTNYADSVKGRFTISRDNAKNTVYLQMNSLKPEDTAVYYCAAVPGLFYLPYEYWGQGTQVTVSS,low polyreactivity
3,QVQLVESGVGLVQAGGSLRLSCAASGITFREYAMGWYRQAPGKERELVAAIRYSGGSTYYADSVKGRFTISRDNAMNTVYLQMNSLKPEDTAVYYCAADPRRTLSPQLSDYWGLGTQVTVSS,high polyreactivity
4,QVQLVESGGGLVQAGGSLRLSCAASGFILDTYGMGWYRQAPGKERELVAAISQSDVSTYYADSVKGRFTISRDNAKNTVSLQMNSLKPEDTAVYYCAADRAGLRWFWQLLYDYWGQGTQVTVSS,low polyreactivity
5,QVQLVESGGGLVQAGGSLRLSCAASGRTFSVNAMGWYRQAPGKERELVATITWSGSSTSYADSVKGRFTISRDNAKNSVDLQMNSLTPEDTAVYYCAADLWTLIYLTDTYGDWGQGTQVTVSS,low polyreactivity
6,QVQLVESGGGLVQAGGSLRLSCAASGRTIVLYVMGWYRQAPGKEREFVADINAGGGSTYYADSVKGRFTISRDNAKNTVYLQMNSLKPEDTSVYYCAATRDLGQLFRFGYWGQSTQVTVSS,low polyreactivity
7,QVQLVESGGGLVQAGGSLRLRCAASGFIFSYYAMGWYRQAPGKERELVAGISYNGNRTYYADSVEGRFTISRDNAKNTVYLQMNSLKPEDTAVYYCNVVCVLGGWYDLEYDYWGQGTQVTVSS,high polyreactivity
8,QVQLVETGGGLVQAGGSLRLSCAASGNTFHPYAMGWYRQSPGKERELVAAITKSVGSTYYADSVKGRFTLSRDNAKNTVYLQMNSLKPEDTAVFYCARDSLQVFYPYASDDSWGQGTQVTVSS,low polyreactivity
9,QVQLVESGGGLVQAGGSLRISFAASGRTFFGYAMGWYRQAPGKERELVATIDGSDGSTFYADSVKGRFTISRDNAKNTVYLQMNSLKPEDTAVYYCAAENFWQSKEYDYWGQGTQVTVSS,low polyreactivity
10,QVQLVESGGGLVQAGGSLRISCAASGSTFDENAMGWYRQAPGKERELVAVISDSGGSTYYADSVKGRFTISRDNAKNTVYLQMNSLKPEDTAVYYCAKDVPPVYPTSSYDYWGQGTQVTVSS,low polyreactivity
11,QVQLVESGGGLVQAGGSLRLSCAASGYTLKWYTMGWYRQAPGKERELVATIRRGGGTYYADSVKGRFTISRDNAKNTVYLQMNSLKPEDTAVYYCNARDRRRTNLLDYWGQGTQVTVSS,low polyreactivity
12,QVQLVESGGGLVQAGGSLRLSCAASGFTFAWYAMGWYRQAPGKERELVAAINWSGGRTYYADSVKGRFTISRDNAKNTVYLQMNSLKPEDTAVYYCAAPHLVKRSEFDYWGQGTQVTVSS,high polyreactivity
13,QVQLVESGGGLVQAGGSLRLSCAASGSTFVSYAMGGSRQAPGKERELVAAISRSGGSTYYADSVKGRFTISRDTAKNTVYLQMNSLKPEDTAGYYCAADGRGPSKRNRDYWGQGTQVTVSS,high polyreactivity
14,QVQLVESGGGLVQAGGSLRLSCAASGSIFGDYAMGWYRQAPGKERELVAAITSSGGITYYADSVKGRFTISRDNAKNTVYLQMNSLKPEDTAVYYCAAYGYGSNYRYTGYYYWGQGTQVTVSS,low polyreactivity
15,QVQLVESGGGLVQAGGSLRLSCAASGRIFTQYAMGWYRQAPGKERELVAAINASDGSTYYADSVKGRFTISRDNAKNTVYLQMNSLKPEDTAVYYCAGYAYNAIEYGYWGQGTQVTVSS,low polyreactivity
16,QVQLVESGGGLVQAGGSLRISCAASGFTFEDNTMGWYRQAPGKERELVAAITWGGVSTYYADSVKGRFTISRDNAKNTVYLQMNSLKPEDTAVYYCARDYDVYTVFLMDYWGQGTQVNVSS,low polyreactivity
